This note sets out measurements from patent US20100196361A1, “Method of inhibition of vascular development using an antibody” (DYAX CORP., priority 2003, published 2010).

Read-outs that look alike come from different tables or passages of the source.

In one data set the test system is platelets. Nature of the data set: Platelet agglutination and aggregation. The class given is cell-based. An excerpt:
It has been reported that Tie1 is expressed on platelets ([…] et al. (2000) J. Vasc. Res. 37(6):437). The possibility of platelet immunoreactivity with the E3 anti-Tie1 antibody was investigated by FACs analysis and immunoprecipitation studies. […] In addition, the effect of DX-2200 and DX-2210 on platelet agglutination and aggregation was investigated. Ristocetin, a cofactor that induces platelet agglutination by mediating the binding of von Willebrand factor (vWF) to platelet membrane glycoprotein GPIb (CD42), was used as a positive control for platelet agglutination.

The target of data set [1] is T1, human Tie1-Fc fusion protein (Homo sapiens, UniProt P35590).
T1 construct: selected against the Tie1 extracellular domain fused to human Fc or to a histidine purification tag
T1 sequence (P35590 22-759 limits assumed): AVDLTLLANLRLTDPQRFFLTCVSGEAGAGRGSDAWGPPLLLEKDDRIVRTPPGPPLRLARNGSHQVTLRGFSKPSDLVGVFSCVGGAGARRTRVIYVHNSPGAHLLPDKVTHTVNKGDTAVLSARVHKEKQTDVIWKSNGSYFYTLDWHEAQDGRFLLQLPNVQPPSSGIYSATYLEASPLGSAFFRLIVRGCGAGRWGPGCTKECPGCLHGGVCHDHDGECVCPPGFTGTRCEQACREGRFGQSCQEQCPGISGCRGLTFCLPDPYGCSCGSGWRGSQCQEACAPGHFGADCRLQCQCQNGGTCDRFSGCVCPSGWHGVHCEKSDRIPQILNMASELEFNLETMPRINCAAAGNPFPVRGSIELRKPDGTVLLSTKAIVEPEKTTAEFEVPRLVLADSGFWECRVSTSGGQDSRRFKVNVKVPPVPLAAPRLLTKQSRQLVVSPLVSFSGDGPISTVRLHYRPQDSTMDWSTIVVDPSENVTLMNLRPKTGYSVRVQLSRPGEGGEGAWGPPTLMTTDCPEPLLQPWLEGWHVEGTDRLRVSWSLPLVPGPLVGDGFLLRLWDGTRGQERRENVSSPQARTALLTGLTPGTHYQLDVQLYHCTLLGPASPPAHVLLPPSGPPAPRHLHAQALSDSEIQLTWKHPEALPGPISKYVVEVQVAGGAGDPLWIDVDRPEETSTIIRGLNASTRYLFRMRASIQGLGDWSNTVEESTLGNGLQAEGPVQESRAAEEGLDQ
Nature of the data set: BIAcore 3000 affinity analysis of Fab and IgG. The class given is binding. On the procedure: Affinity analysis of the Fab and IgGs was performed using surface plasmon resonance using a BIAcore 3000 instrument. For this analysis both dimeric (Tie1-Fc fusion protein) and monomeric (Tie1-HIS) versions of the extracellular domain of the Tie1 were used. The sensor chips used in these experiments were CM5 (dextran-coated) which allow immobilization of proteins to the chip via standard amine coupling chemistries. The concentration of flowed antibody was determined using a surface plasmon resonance based method. Using a high-density protein A sensor chip, under mass transport limited conditions, the response signal is dependent only on the concentration of the antibody in the sample under test. This approach allows a precise determination of the antibody concentration, a parameter important for accurate determination of the KD.
470 RUs of Tie1 HIS protein were coated on a CM5 sensor chip and 5, 20, 100, and 500 nM of the Fab flowed over the chip at four different flow rates ([…]), rates in which the system is not mass transport limited. Kinetic data was typically determined using a range of analyte concentrations and three different chip coating densities. The data from the lowest coating density that gave a good signal was typically chosen, this was often in a range from 50-100 RUs. Using such low coating densities allowed the sensor curves to be fit using BIAEVALUATION™ 3.0 software to a 1:1 model, often even when using a bivalent analyte (IgG or Tie1-Fc fusion protein). For bivalent analytes, when fit to a 1:1 model was not possible, the curves were fit using a 2:1 model.
The anti-Tie1 antibodies described here bind to both human and mouse Tie1 molecules. The binding of the anti-Tie1 Fab to mouse Tie1-Fc fusion protein was compared with the binding of the anti-Tie1 Fab to human Tie1-Fc fusion protein. In both of these experiments the Tie1-Fc fusion protein was immobilized on the sensor chip and the anti Tie-1 Fab served as the analyte. Under these experimental conditions the anti-Tie1 Fab has very similar KD (˜3 nM) values for both the human and mouse Tie1-Fc fusion proteins (Table 9). Under conditions that are likely to mimic those used in the animal efficacy experiments, i.e. Tie1-Fc immobilized to the CM5 sensor chip and anti-Tie1 used as the analyte, the measured KD was 0.2 nM.

For data set [2], the system named is bFGF-induced angiogenesis. Nature of the data set: […] plug assay in vivo. Further details: species or system mouse. On the procedure: The germlined variant of the E3 IgG antibody was evaluated in an in vivo assay for angiogenesis induced by bFGF in […]™ plugs. Growth factor reduced […]™ (BD Biosciences, catalog #354230) was supplemented with 80 ng/ml of bFGF (R&D Systems, catalog #234-FSE). The A2-SV or an IgG4 E3 antibody (10 μg/ml) or PBS was injected subcutaneously into the abdominal area of NMRI nu/nu mice (150 μl of Matrigel/plug).
In the first assay, two mice were injected with […]™ supplemented with bFGF and soluble VEGFR-1 (10 μg/ml) as a positive control for an angiogenic inhibitor. At day 7 post-implantation mice were anesthetized and perfused through heart with 4% paraformaldehyde (PFA) in phosphate buffered saline (PBS). […]™ plugs and a piece of liver were removed and embedded in paraffin. Sections were cut and stained with hematoxylin and eosin (H&E).
In a second assay, mice were treated as described above, and then anesthetized eight days post-implantation and injected with fluorescein-conjugated tomato (lycopersicon esculentum) lectin (100 μg in 200 μl of PBS; Vector, catalog #FL-1171) into the tail vein. After five min circulation the animals were perfused through the heart with 10 ml of PBS followed by 10 ml of 4% PFA in PBS. […]™ plugs and pieces of kidney and liver were removed and frozen in OCT (Tissue-Tek). Nuclei were visualized on sections by using […]® mounting medium containing DAPI (Vector) and analyzed under fluorescence microscopy.
To assess further the potential anti-angiogenic activity of the E3 antibody, a third assay examining the effect of DX-2210 (E3 antibody with germlined light chain) on bFGF-induced endothelial cell tube formation in […]™ plugs was performed. […] In order to quantitate the amount of blood vessels in the […]™ plugs, sections were cut and either stained for endothelial cell content using an anti-CD-31 antibody or analyzed under fluorescence microscopy to assess the amount of functional blood vessels (tomato lectin staining) (data not shown). In addition, the amount of blood vessels per unit area was quantitated.

B1: E3: human anti-Tie1 antibody from phage Fab library, reformatted as IgG; HC variable SEQ ID NO:114, LC variable SEQ ID NO:116 (antibody, V domains shown)
VH: EVQLLESGGGLVQPGGSLRLSCAASGFTFSMYGMVWVRQAPGKGLEWVSVISPSGGNTGYADSVKGRFTISRDNSKNTLYLQVNSLRAEDTAVYYCARAPRGYSYGYYYWGQGTLVTVSSASTKGPSVFPLAPSSKSTSGG
VL: DIQMTQSPLSLSASVGDRVTITCRASQGIGHYLAWYQQKPGKVPKLLIYTASTLQSGVPSRFSGSGSGTDFTLTINSLQPEDVATYYCQQFNSYPHTFGQGTRLDIK
modifications: IgG constant regions; Synthetically generated peptide
As to B1, the “induction of platelet agglutination or aggregation” value with platelets (ristocetin and anti-CD9 as positive controls) is on record as “Neither the DX-2200 nor its light chain germlined variant DX-2210 induced platelet agglutination or aggregation”. Moreover, in data set [1], the “Kon” value was 6190 M⁻¹ s⁻¹ and the koff (in general, a measure of how fast the partners let go of each other) was found to be 3.61e-05 s⁻¹. In data set [2] (bFGF, antibody in plug, eight days post-implantation), the “fluorescein-lectin staining of MATRIGEL plugs” value was “no staining could be detected”.

B2: parental E3 Fab: soluble Fab fragment of the parental E3 anti-Tie1 antibody (antibody, V domains shown)
VH: EVQLLESGGGLVQPGGSLRLSCAASGFTFSMYGMVWVRQAPGKGLEWVSVISPSGGNTGYADSVKGRFTISRDNSKNTLYLQVNSLRAEDTAVYYCARAPRGYSYGYYYWGQGTLVTVSSASTKGPSVFPLAPSSKSTSGG
VL: DIQMTQSPLSLSASVGDRVTITCRASQGIGHYLAWYQQKPGKVPKLLIYTASTLQSGVPSRFSGSGSGTDFTLTINSLQPEDVATYYCQQFNSYPHTFGQGTRLDIK
In the case of B2, in data set [1], the “Kon” value was 8260 M⁻¹ s⁻¹ and the “koff” value worked out at 4.47e-05 s⁻¹.

B3: DX-2210: E3 antibody in which the light chain has been germlined (antibody, V domains shown)
VH: EVQLLESGGGLVQPGGSLRLSCAASGFTFSMYGMVWVRQAPGKGLEWVSVISPSGGNTGYADSVKGRFTISRDNSKNTLYLQVNSLRAEDTAVYYCARAPRGYSYGYYYWGQGTLVTVSSASTKGPSVFPLAPSSKSTSGG
VL: DIQMTQSPSSLSASVGDRVTITCRASQGIGHYLAWYQQKPGKVPKLLIYTASTLQSGVPSRFSGSGSGTDFTLTISSLQPEDVATYYCQQFNSYPHTFGQGTRLEIK
In the case of B3, the “induction of platelet agglutination or aggregation” value in the data set on platelets was “Neither the DX-2200 nor its light chain germlined variant DX-2210 induced platelet agglutination or aggregation”. The “inhibition of bFGF-induced angiogenesis (blood vessels per unit area)” value in data set [2] (MATRIGEL with HUVECs and bFGF, Balb/c nu/nu mice, day 8) was 70%. For the same molecule, the “H&E staining of MATRIGEL plugs” value in data set [2] (bFGF 80 ng/ml, antibody 10 μg/ml in plug, NMRI nu/nu mice, day 7) is recorded as “neither modification of the matrix nor organization of the cells observed”.
